Key:
[1] = target: C. albicans cytosolic enolase (C. albicans) (UniProt P30575); test: ELISA; competition in a microplate: VTR immobilised (3 pmol per well); 40 nM biotinylated C. albicans enolase and 400 nM unlabeled HPG added together in PBS, 1.5 h, 37 °C; SA-HRP/TMB; also with 5 mM Mg2+ (no effect)
[2] = target: C. albicans cytosolic enolase (C. albicans) (UniProt P30575); test: SPR; BIACORE 3000; enolase amine-coupled to a CM5 chip (about 300 RU); human protein as analyte (40-750 nM or 75-750 nM), 30 µL/min, 25 °C, 10 mM HEPES, 150 mM NaCl, 0.005% P20, pH 7.4; 1:1 Langmuir global fit with baseline drift and local Rmax; regeneration 1 M NaCl
[3] = target: C. tropicalis cytosolic enolase (C. tropicalis) (UniProt C5MD83); test: as above
[4] = target: C. albicans cell surface-exposed enolase (C. albicans) (UniProt P30575); test: as above
[5] = target: human fibronectin (human); test: ELISA; microplate ligand-binding assay, semi-quantitative: 3 pmol human protein immobilised per MaxiSorp well, blocked with 3% BSA; biotin-labeled enolase 10-500 nM in PBS, 1.5 h, 37 °C; detection with SA-HRP/TMB; BSA-only wells subtracted
[6] = target: human vitronectin (human) (UniProt P04004); test: as above
Chain of human vitronectin (human) (P04004 20-478): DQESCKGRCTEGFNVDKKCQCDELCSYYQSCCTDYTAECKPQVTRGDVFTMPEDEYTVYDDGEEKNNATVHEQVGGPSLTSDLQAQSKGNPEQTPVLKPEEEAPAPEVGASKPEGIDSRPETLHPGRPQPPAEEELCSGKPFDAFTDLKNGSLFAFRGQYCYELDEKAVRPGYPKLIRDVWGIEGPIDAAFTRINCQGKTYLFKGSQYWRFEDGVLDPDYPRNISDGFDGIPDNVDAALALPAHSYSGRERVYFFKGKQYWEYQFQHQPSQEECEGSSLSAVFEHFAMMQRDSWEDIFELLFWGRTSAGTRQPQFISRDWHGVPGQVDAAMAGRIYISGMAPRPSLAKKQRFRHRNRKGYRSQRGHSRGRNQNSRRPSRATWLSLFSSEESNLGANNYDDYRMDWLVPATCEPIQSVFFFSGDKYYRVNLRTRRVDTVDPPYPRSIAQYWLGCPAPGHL

[7] = target: human plasminogen (human); test: as above

Substance	reduction of the binding of biotinylated enolase to immobilized VTR [1] [%]	Kd [2] [nM]	koff [2] [s⁻¹]	kon [2] [M⁻¹ s⁻¹]	Kd [3] [nM]	koff [3] [s⁻¹]	kon [3] [M⁻¹ s⁻¹]	Kd [4] [nM]	koff [4] [s⁻¹]	kon [4] [M⁻¹ s⁻¹]	reduction in binding compared to R-Eno [5] [%]	reduction in binding compared to R-Eno [6] [%]	reduction in binding compared to R-Eno [7] [%]
human plasminogen (natural protein)	50	257	0.0693	270000	253	0.0146	57700	120	0.0626	522000			
human fibronectin (natural protein)		42.8	0.0277	647000	51.8	0.00284	54800	36.8	0.00222	60300			
recombinant C. albicans enolase with the 235-255 sequence of S. cerevisiae enolase (R-Enosc) (from UniProt P30575 1-440) (enzyme)											> 50	> 50	> 50

Reference: article PMC7660097
